How the values were obtained:
[1] = molecular target: T1, His6-Cdc20^ΔN60 WT (human, UniProt Q12834 61-499); experiment: pull-down; purified His6–Cdc20^ΔN60 WT or S92E immobilised on Ni-NTA beads, incubated with BubR1N and Mad2, 1 h at room temperature, five washes, immunoblotting; conditions: both partners purified
T1 construct: Cdc20, human, residues 61-499 (Cdc20^ΔN60); also called Cdc20 WT; recombinant Cdc20; source: Sf9, purified (Ni-NTA)

[2] = molecular target: T2, His6-Cdc20^ΔN60 S92E (human, UniProt Q12834 61-499, S92E); experiment: as above; conditions: both partners purified
T2 construct: Cdc20, human, residues 61-499 (Cdc20^ΔN60), phospho-mimicking S92E; also called Cdc20 S92E; source: Sf9, purified (Ni-NTA)
T2 sequence (Q12834 61-499 S92E): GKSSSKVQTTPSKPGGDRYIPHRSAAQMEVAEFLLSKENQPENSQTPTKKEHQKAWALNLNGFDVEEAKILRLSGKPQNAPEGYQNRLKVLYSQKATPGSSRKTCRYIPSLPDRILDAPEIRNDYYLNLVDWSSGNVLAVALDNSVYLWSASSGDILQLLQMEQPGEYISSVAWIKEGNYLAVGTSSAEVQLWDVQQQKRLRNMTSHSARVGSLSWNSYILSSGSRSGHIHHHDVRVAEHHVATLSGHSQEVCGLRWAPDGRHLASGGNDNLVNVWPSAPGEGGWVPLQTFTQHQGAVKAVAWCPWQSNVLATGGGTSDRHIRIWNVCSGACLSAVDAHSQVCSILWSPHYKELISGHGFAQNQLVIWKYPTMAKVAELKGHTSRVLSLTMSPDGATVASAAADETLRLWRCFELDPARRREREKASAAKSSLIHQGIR

T1 sequence (Q12834 61-499, stated change not applied): as the sequence (Q12834 61-499 S92E) above, with E32S counted along it

B1: BubR1 N-terminal fragment (BubR1N; residues 1–370) (domain or fragment, human, UniProt O60566 1-370, looked up)
chain: MAAVKKEGGALSEAMSLEGDEWELSKENVQPLRQGRIMSTLQGALAQESACNNTLQQQKRAFEYEIRFYTGNDPLDVWDRYISWTEQNYPQGGKESNMSTLLERAVEALQGEKRYYSDPRFLNLWLKLGRLCNEPLDMYSYLHNQGIGVSLAQFYISWAEEYEARENFRKADAIFQEGIQQKAEPLERLQSQHRQFQARVSRQTLLALEKEEEEEVFESSVPQRSTLAELKSKGKKTARAPIIRVGGALKAPSQNRGLQNPFPQQMQNNSRITVFDENADEASTAELSKPTVQPWIAPPMPRAKENELQAGPWNTGRSLEHRPRGNTASLIAVPAVLPSFTPYVEETARQPVMTPCKIEPSINHILSTRK
notes: source: bacteria, purified (Ni-NTA, TEV digestion, Resource Q, Superdex 200)
binding result [1]: binds
binding result [2]: binds
